According to paper PMC12144868, “New Transferrin Receptor‐Targeting Conjugate Effectively Delivers DNA to Mouse Brain”:

Target: human transferrin receptor (hTfR), extracellular domain (Homo sapiens, UniProt P02786 89-760)
Assay: SPR; ka 6.30E+06; kd 1.38E-04 s-1; SPR Biacore T100, SA chip, biotinylated aptamer heated to 65°C then cooled to 37°C before immobilization; five hTfR concentrations at 10 uL/min; 1:1 model with
Details: protein: commercial; tags: N-terminal tag (His implied by Ni-NTA; tag name cut in the text); chain copies: 2; label: biotin

Chain of human transferrin receptor (hTfR), extracellular domain (P02786 89-760): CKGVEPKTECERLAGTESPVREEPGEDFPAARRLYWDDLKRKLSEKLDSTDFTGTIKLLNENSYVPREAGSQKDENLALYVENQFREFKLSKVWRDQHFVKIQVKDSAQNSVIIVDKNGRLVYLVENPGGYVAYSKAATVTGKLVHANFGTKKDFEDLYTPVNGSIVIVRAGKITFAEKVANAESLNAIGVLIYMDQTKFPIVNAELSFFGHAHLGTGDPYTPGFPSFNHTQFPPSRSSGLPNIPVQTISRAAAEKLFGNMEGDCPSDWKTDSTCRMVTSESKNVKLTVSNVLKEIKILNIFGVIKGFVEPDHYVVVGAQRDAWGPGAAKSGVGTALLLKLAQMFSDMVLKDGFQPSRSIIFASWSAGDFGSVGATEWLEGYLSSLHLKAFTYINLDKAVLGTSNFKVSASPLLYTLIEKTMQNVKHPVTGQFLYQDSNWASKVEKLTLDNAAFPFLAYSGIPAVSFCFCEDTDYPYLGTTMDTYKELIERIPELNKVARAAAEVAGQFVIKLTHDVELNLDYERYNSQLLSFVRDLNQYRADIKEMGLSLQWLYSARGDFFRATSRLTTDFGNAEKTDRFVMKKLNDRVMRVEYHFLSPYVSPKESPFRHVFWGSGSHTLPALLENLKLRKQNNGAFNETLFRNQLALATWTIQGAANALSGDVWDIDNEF

B1: tTfR aptamer 22-nt (truncated) (XNA)
RNA: UUUAUUCACAUUUUUGAAUUGA
modifications: all U and C 2'F-2'-deoxy (i2FU, i2FC); A and G ribo
**Q.** B1 was tested. Which Kd did it give?
**A.** 0.022 nM
